Laboratory results as given in US20160264649A1.

How the values were obtained:
Test in all cases: cell-based or functional assay
[1] = target: HIV-1 Env of isolate VLGCA1 (subtype A) (HIV-1)
[2] = target: HIV-1 Env of isolate MGRM-F1-017 (subtype F) (HIV-1)
[3] = target: HIV-1 Env of isolate MGRM-F1-008 (subtype F) (HIV-1)
[4] = target: HIV-1 Env of isolate MGRM-D-011 (subtype D) (HIV-1)
[5] = target: HIV-1 Env of isolate 94 KE 105 (subtype AC) (HIV-1)
[6] = target: HIV-1 Env of isolate MGRM-F1-013 (subtype F) (HIV-1)
[7] = target: HIV-1 Env of isolate MGRM-AE-001 (subtype AE) (HIV-1)
[8] = target: HIV-1 Env of isolate 92UG031 (subtype A) (HIV-1)
[9] = target: HIV-1 Env of isolate MGRM-F1-021 (subtype F) (HIV-1)
[10] = target: HIV-1 Env of isolate 92WR021 (subtype A) (HIV-1)
[11] = target: HIV-1 Env of isolate MGRM-D-004 (subtype D) (HIV-1)
[12] = target: HIV-1 Env of isolate MGRM-F1-023 (subtype F) (HIV-1)
[13] = target: HIV-1 Env of isolate 94UG103 (subtype A) (HIV-1)
[14] = target: HIV-1 Env of isolate 92WR020 (subtype A) (HIV-1)
[15] = target: HIV-1 Env of isolate MGRM-D-002 (subtype D) (HIV-1)
[16] = target: HIV-1 Env of isolate 92TH021 (subtype AE) (HIV-1)
[17] = target: HIV-1 Env of isolate MGRM-F1-018 (subtype F) (HIV-1)
[18] = target: HIV-1 Env of isolate MGRM-D-020 (subtype D) (HIV-1)
[19] = target: HIV-1 Env of isolate MGRM-D-014 (subtype D) (HIV-1)
[20] = target: HIV-1 Env of isolate MGRM-D-003 (subtype D) (HIV-1)
[21] = target: HIV-1 Env of isolate MGRM-D-016 (subtype D) (HIV-1)
[22] = target: HIV-1 Env of isolate MGRM-F1-010 (subtype F) (HIV-1)
[23] = target: HIV-1 Env of isolate MGRM-F1-014 (subtype F) (HIV-1)
[24] = target: HIV-1 Env of isolate 92WR024 (subtype A) (HIV-1)
[25] = target: HIV-1 Env of isolate MGRM-D-026 (subtype D) (HIV-1)
[26] = target: HIV-1 Env of isolate MGRM-AE-005 (subtype AE) (HIV-1)
[27] = target: HIV-1 Env of isolate MGRM-D-021 (subtype D) (HIV-1)
[28] = target: HIV-1 Env of isolate MGRM-F1-016 (subtype F) (HIV-1)
[29] = target: HIV-1 Env of isolate MGRM-D-005 (subtype D) (HIV-1)
[30] = target: HIV-1 Env of isolate CMU02 (subtype AE) (HIV-1)
[31] = target: HIV-1 Env of isolate MGRM-D-019 (subtype D) (HIV-1)
[32] = target: HIV-1 Env of isolate 92UG037 (subtype A) (HIV-1)
[33] = target: HIV-1 Env of isolate 92WR026 (subtype A) (HIV-1)
[34] = target: HIV-1 Env of isolate MGRM-D-028 (subtype D) (HIV-1)
[35] = target: HIV-1 Env of isolate 92WR009 (subtype A) (HIV-1)
[36] = target: HIV-1 Env of isolate MGRM-D-018 (subtype D) (HIV-1)
[37] = target: HIV-1 Env of isolate MGRM-F1-006 (subtype F) (HIV-1)
[38] = target: HIV-1 Env of isolate MGRM-D-022 (subtype D) (HIV-1)
[39] = target: HIV-1 Env of isolate MGRM-D-029 (subtype D) (HIV-1)
[40] = target: HIV-1 Env of isolate MGRM-D-024 (subtype D) (HIV-1)
[41] = target: HIV-1 Env of isolate MGRM-F1-020 (subtype F) (HIV-1)
[42] = target: HIV-1 Env of isolate MGRM-D-001 (subtype D) (HIV-1)
[43] = target: HIV-1 Env of isolate MGRM-D-013 (subtype D) (HIV-1)
[44] = target: HIV-1 Env of isolate MGRM-F1-015 (subtype F) (HIV-1)
[45] = target: HIV-1 Env of isolate MGRM-AE-006 (subtype AE) (HIV-1)
[46] = target: HIV-1 Env of isolate MGRM-F1-004 (subtype F) (HIV-1)
[47] = target: HIV-1 Env of isolate MGRM-AE-002 (subtype AE) (HIV-1)
[48] = target: HIV-1 Env of isolate 93WR029 (subtype A) (HIV-1)
[49] = target: HIV-1 Env of isolate MGRM-AE-008 (subtype AE) (HIV-1)
[50] = target: HIV-1 Env of isolate MGRM-D-012 (subtype D) (HIV-1)
[51] = target: HIV-1 Env of isolate MGRM-AE-003 (subtype AE) (HIV-1)
[52] = target: HIV-1 Env of isolate MGRM-F1-022 (subtype F) (HIV-1)
[53] = target: HIV-1 Env of isolate 93UG077 (subtype A) (HIV-1)
[54] = target: HIV-1 Env of isolate MGRM-F1-012 (subtype F) (HIV-1)
[55] = target: HIV-1 Env of isolate MGRM-AE-004 (subtype AE) (HIV-1)
[56] = target: HIV-1 Env of isolate MGRM-AE-007 (subtype AE) (HIV-1)
[57] = target: HIV-1 Env of isolate 92UG114 (subtype D) (HIV-1)
[58] = target: HIV-1 Env of isolate MGRM-D-008 (subtype D) (HIV-1)

Sequence of PGT-144 (4970_K22) (antibody) (VH): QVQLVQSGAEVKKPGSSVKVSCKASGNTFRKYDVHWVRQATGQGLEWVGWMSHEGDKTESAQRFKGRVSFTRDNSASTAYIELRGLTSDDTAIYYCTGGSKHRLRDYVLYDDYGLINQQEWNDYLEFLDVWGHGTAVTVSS
Sequence of PGT-144 (4970_K22) (antibody) (VL): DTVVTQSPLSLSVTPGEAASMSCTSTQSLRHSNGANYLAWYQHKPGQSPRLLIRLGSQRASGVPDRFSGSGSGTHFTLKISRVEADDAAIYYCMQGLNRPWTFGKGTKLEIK
Sequence of PGT-143 (4980_N08) (antibody) (VH): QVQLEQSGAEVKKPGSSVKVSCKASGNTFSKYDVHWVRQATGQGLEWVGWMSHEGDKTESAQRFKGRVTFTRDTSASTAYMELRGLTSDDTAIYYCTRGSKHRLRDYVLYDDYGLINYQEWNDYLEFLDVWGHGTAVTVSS
Sequence of PGT-143 (4980_N08) (antibody) (VL): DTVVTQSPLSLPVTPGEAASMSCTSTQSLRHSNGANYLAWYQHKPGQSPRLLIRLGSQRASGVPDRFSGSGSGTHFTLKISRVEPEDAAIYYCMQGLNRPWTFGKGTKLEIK

PGT-143 (4980_N08) (antibody)
IC50 (pseudovirus neutralization) [1]: 17.4 µg/mL
IC50 (pseudovirus neutralization) [2]: 26.3 µg/mL
IC50 (pseudovirus neutralization) [3]: 0.189 µg/mL
IC50 (pseudovirus neutralization) [4]: > 50 µg/mL
IC50 (pseudovirus neutralization) [5]: 0.368 µg/mL
IC50 (pseudovirus neutralization) [6]: 0.013 µg/mL
IC50 (pseudovirus neutralization) [7]: > 50 µg/mL
IC50 (pseudovirus neutralization) [8]: 0.095 µg/mL
IC50 (pseudovirus neutralization) [9]: > 50 µg/mL
IC50 (pseudovirus neutralization) [10]: > 50 µg/mL
IC50 (pseudovirus neutralization) [11]: > 50 µg/mL
IC50 (pseudovirus neutralization) [12]: 0.972 µg/mL
IC50 (pseudovirus neutralization) [13]: > 50 µg/mL
IC50 (pseudovirus neutralization) [14]: > 50 µg/mL
IC50 (pseudovirus neutralization) [15]: > 50 µg/mL
IC50 (pseudovirus neutralization) [16]: 0.003 µg/mL
IC50 (pseudovirus neutralization) [17]: 0.701 µg/mL
IC50 (pseudovirus neutralization) [18]: > 50 µg/mL
IC50 (pseudovirus neutralization) [19]: 0.009 µg/mL
IC50 (pseudovirus neutralization) [20]: > 50 µg/mL
IC50 (pseudovirus neutralization) [21]: > 50 µg/mL
IC50 (pseudovirus neutralization) [22]: > 50 µg/mL
IC50 (pseudovirus neutralization) [23]: 1 ng/mL
IC50 (pseudovirus neutralization) [24]: 0.122 µg/mL
IC50 (pseudovirus neutralization) [25]: 44.6 µg/mL
IC50 (pseudovirus neutralization) [26]: > 50 µg/mL
IC50 (pseudovirus neutralization) [27]: > 50 µg/mL
IC50 (pseudovirus neutralization) [28]: > 50 µg/mL
IC50 (pseudovirus neutralization) [29]: 1.41 µg/mL
IC50 (pseudovirus neutralization) [30]: > 50 µg/mL
IC50 (pseudovirus neutralization) [31]: 0.277 µg/mL
IC50 (pseudovirus neutralization) [32]: 0.854 µg/mL
IC50 (pseudovirus neutralization) [33]: 5.36 µg/mL
IC50 (pseudovirus neutralization) [34]: > 50 µg/mL
IC50 (pseudovirus neutralization) [35]: 0.01 µg/mL
IC50 (pseudovirus neutralization) [36]: > 50 µg/mL
IC50 (pseudovirus neutralization) [37]: 12.3 µg/mL
IC50 (pseudovirus neutralization) [38]: > 50 µg/mL
IC50 (pseudovirus neutralization) [39]: 0.2 µg/mL
IC50 (pseudovirus neutralization) [40]: > 50 µg/mL
IC50 (pseudovirus neutralization) [41]: 0.98 µg/mL
IC50 (pseudovirus neutralization) [42]: > 50 µg/mL
IC50 (pseudovirus neutralization) [43]: 0.386 µg/mL
IC50 (pseudovirus neutralization) [44]: > 50 µg/mL
IC50 (pseudovirus neutralization) [45]: > 50 µg/mL
IC50 (pseudovirus neutralization) [46]: 0.036 µg/mL
IC50 (pseudovirus neutralization) [47]: > 50 µg/mL
IC50 (pseudovirus neutralization) [48]: 0.053 µg/mL
IC50 (pseudovirus neutralization) [49]: 0.135 µg/mL
IC50 (pseudovirus neutralization) [50]: > 50 µg/mL
IC50 (pseudovirus neutralization) [51]: > 50 µg/mL
IC50 (pseudovirus neutralization) [52]: 0.082 µg/mL
IC50 (pseudovirus neutralization) [53]: > 50 µg/mL
IC50 (pseudovirus neutralization) [54]: > 50 µg/mL
IC50 (pseudovirus neutralization) [55]: 0.002 µg/mL
IC50 (pseudovirus neutralization) [56]: 13.6 µg/mL
IC50 (pseudovirus neutralization) [57]: > 50 µg/mL
IC50 (pseudovirus neutralization) [58]: 0.153 µg/mL

PGT-144 (4970_K22) (antibody)
IC50 (pseudovirus neutralization) [1]: > 50 µg/mL
IC50 (pseudovirus neutralization) [2]: > 50 µg/mL
IC50 (pseudovirus neutralization) [3]: 0.507 µg/mL
IC50 (pseudovirus neutralization) [4]: > 50 µg/mL
IC50 (pseudovirus neutralization) [5]: 0.29 µg/mL
IC50 (pseudovirus neutralization) [6]: 0.509 µg/mL
IC50 (pseudovirus neutralization) [7]: > 50 µg/mL
IC50 (pseudovirus neutralization) [8]: 2.17 µg/mL
IC50 (pseudovirus neutralization) [9]: > 50 µg/mL
IC50 (pseudovirus neutralization) [10]: > 50 µg/mL
IC50 (pseudovirus neutralization) [11]: > 50 µg/mL
IC50 (pseudovirus neutralization) [12]: 1.16 µg/mL
IC50 (pseudovirus neutralization) [13]: > 50 µg/mL
IC50 (pseudovirus neutralization) [14]: > 50 µg/mL
IC50 (pseudovirus neutralization) [15]: > 50 µg/mL
IC50 (pseudovirus neutralization) [16]: 0.052 µg/mL
IC50 (pseudovirus neutralization) [17]: > 50 µg/mL
IC50 (pseudovirus neutralization) [18]: > 50 µg/mL
IC50 (pseudovirus neutralization) [19]: 0.113 µg/mL
IC50 (pseudovirus neutralization) [20]: > 50 µg/mL
IC50 (pseudovirus neutralization) [21]: > 50 µg/mL
IC50 (pseudovirus neutralization) [22]: > 50 µg/mL
IC50 (pseudovirus neutralization) [23]: 14 ng/mL
IC50 (pseudovirus neutralization) [24]: 16.3 µg/mL
IC50 (pseudovirus neutralization) [25]: > 50 µg/mL
IC50 (pseudovirus neutralization) [26]: > 50 µg/mL
IC50 (pseudovirus neutralization) [27]: > 50 µg/mL
IC50 (pseudovirus neutralization) [28]: > 50 µg/mL
IC50 (pseudovirus neutralization) [29]: 14.8 µg/mL
IC50 (pseudovirus neutralization) [30]: > 50 µg/mL
IC50 (pseudovirus neutralization) [31]: > 50 µg/mL
IC50 (pseudovirus neutralization) [32]: 8.24 µg/mL
IC50 (pseudovirus neutralization) [33]: 32.7 µg/mL
IC50 (pseudovirus neutralization) [34]: > 50 µg/mL
IC50 (pseudovirus neutralization) [35]: 0.893 µg/mL
IC50 (pseudovirus neutralization) [36]: > 50 µg/mL
IC50 (pseudovirus neutralization) [37]: 20.6 µg/mL
IC50 (pseudovirus neutralization) [38]: > 50 µg/mL
IC50 (pseudovirus neutralization) [39]: 0.459 µg/mL
IC50 (pseudovirus neutralization) [40]: > 50 µg/mL
IC50 (pseudovirus neutralization) [41]: 8.93 µg/mL
IC50 (pseudovirus neutralization) [42]: > 50 µg/mL
IC50 (pseudovirus neutralization) [43]: > 50 µg/mL
IC50 (pseudovirus neutralization) [44]: > 50 µg/mL
IC50 (pseudovirus neutralization) [45]: > 50 µg/mL
IC50 (pseudovirus neutralization) [46]: 0.105 µg/mL
IC50 (pseudovirus neutralization) [47]: > 50 µg/mL
IC50 (pseudovirus neutralization) [48]: 4.39 µg/mL
IC50 (pseudovirus neutralization) [49]: 3.55 µg/mL
IC50 (pseudovirus neutralization) [50]: > 50 µg/mL
IC50 (pseudovirus neutralization) [51]: > 50 µg/mL
IC50 (pseudovirus neutralization) [52]: 0.382 µg/mL
IC50 (pseudovirus neutralization) [53]: > 50 µg/mL
IC50 (pseudovirus neutralization) [54]: > 50 µg/mL
IC50 (pseudovirus neutralization) [55]: 0.104 µg/mL
IC50 (pseudovirus neutralization) [56]: > 50 µg/mL
IC50 (pseudovirus neutralization) [57]: > 50 µg/mL
IC50 (pseudovirus neutralization) [58]: 9.85 µg/mL
